Test results: PMC4777856, “Structural Basis of Stereospecificity in the Bacterial Enzymatic Cleavage of β-Aryl Ether Bonds in Lignin” (The Journal of Biological Chemistry, 2015)

B1: LigF (Sphingobium sp. SYK-6) (protein)
chain: MTLKLYSFGPGANSLKPLATLYEKGLEFEQVFVDPSKFEQHSDWFKKINPRGQVPALWHDGKVVTESTVICEYLEDVFPESGNSLRPADPFKRAEMRVWTKWVDEYFCWCVSTIGWAFGIKAIAQKMSDEEFEEHINKNVPIPEQQLKWRRARNGFPQEMLDEEFRKVGVSVARLEETLSKQDYLVDTGYSLADICNFAIANGLQRPGGFFGDYVNQEKTPGLCAWLDRINARPAIKEMFEKSKREDLLKRQNEKVA
notes: full-length wild type LigF (254 residues), vector pVP102KSSLigF; dimer
B2: LigE (Sphingobium sp. SYK-6) (protein)
chain: MARNNTITLYDLQLESGCTISPYVWRTKYALKHKGFDIDIVPGGFTGILERTGGRSERVPVIVDDGEWVLDSWVIAEYLDEKYPDRPMLFEGPTQKNLMKFLDNWLWSTAVGPWFRCYILDYHDLSLPQDRDYVRWSREQWFLGGQRLEDVQAGREDRLPLVPPTLEPFRRILAETKWLGGDQPNFADYSALAVFLWTASVARTPPLTEDDPLRDWLDRGFDLFDGLGRHPGMNPLFGLKLREGDPEPFVRQTGPAGAGGQALNKGPQTTKMPPRVAEKAD
notes: full-length LigE (282 residues), E. coli, synthesized gene in pCPD, C-terminal CPD-His tag cleaved off after a leucine; dimer

Tests used:
purified protein [1] = substrate: COc1ccc(C(=O)[C@H](CO)Oc2ccc(C=O)cc2OC)cc1OC; assay: purified protein; format: biochemical, Sphingobium sp. SYK-6; conditions: 5 mM GSH, 25 mM Tris, 2.5% DMSO, pH 8.0, 30 °C
purified protein [2] = substrate: COc1ccc(C(=O)[C@@H](CO)Oc2ccc(C=O)cc2OC)cc1OC; assay: purified protein; format: biochemical, Sphingobium sp. SYK-6; conditions: 5 mM GSH, 25 mM Tris, 2.5% DMSO, pH 8.0, 30 °C

Protein | Km (purified protein [1]) | Vmax (purified protein [1]) | kcat (purified protein [1]) | kcat/Km (purified protein [1]) | Km (purified protein [2]) | Vmax (purified protein [2]) | kcat (purified protein [2]) | kcat/Km (purified protein [2])
B1 | 269 ± 1 µM | 63.8 µmol/min/mg | 31.9 ± 0.1 s⁻¹ | 118400 ± 1100 M⁻¹ s⁻¹ | – | – | – | –
B2 | – | – | – | – | 554 ± 16 µM | 59.7 µmol/min/mg | 31.9 ± 0.6 s⁻¹ | 57600 ± 4800 M⁻¹ s⁻¹
